# From patent US20260242735A1
# Key:
# human CD33 I176A (human) = human CD33 I176A (human) (UniProt P20138); experiment: alanine scan, flow cytometry, HEK293-T
# human CD33 Q80A (human) = human CD33 Q80A (human) (UniProt P20138); experiment: alanine scan, flow cytometry, HEK293-T
# human CD33 V56A (human) = human CD33 V56A (human) (UniProt P20138); experiment: alanine scan, flow cytometry, HEK293-T
# human CD33 P96A (human) = human CD33 P96A (human) (UniProt P20138); experiment: alanine scan, flow cytometry, HEK293-T
# human CD33 E121A (human) = human CD33 E121A (human) (UniProt P20138); experiment: alanine scan, flow cytometry, HEK293-T
# human CD33 F177A (human) = human CD33 F177A (human) (UniProt P20138); experiment: alanine scan, flow cytometry, HEK293-T
# Chain of human CD33 F177A (human) (P20138 18-364 F177A limits assumed): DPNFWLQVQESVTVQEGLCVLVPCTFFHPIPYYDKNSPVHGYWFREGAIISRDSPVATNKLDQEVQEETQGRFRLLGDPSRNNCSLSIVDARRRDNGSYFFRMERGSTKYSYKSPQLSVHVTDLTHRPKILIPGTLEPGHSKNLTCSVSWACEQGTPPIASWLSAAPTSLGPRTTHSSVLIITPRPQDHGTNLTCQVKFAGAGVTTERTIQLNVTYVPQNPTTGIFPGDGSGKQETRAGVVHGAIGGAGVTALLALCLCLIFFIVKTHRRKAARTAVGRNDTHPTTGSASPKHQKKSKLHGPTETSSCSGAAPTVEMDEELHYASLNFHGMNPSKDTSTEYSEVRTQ
# human CD33 A182S (human) = human CD33 A182S (human) (UniProt P20138); experiment: alanine scan, flow cytometry, HEK293-T
# human CD33 Y129A (human) = human CD33 Y129A (human) (UniProt P20138); experiment: alanine scan, flow cytometry, HEK293-T
# human CD33 L187A (human) = human CD33 L187A (human) (UniProt P20138); experiment: alanine scan, flow cytometry, HEK293-T
# human CD33 R109A (human) = human CD33 R109A (human) (UniProt P20138); experiment: alanine scan, flow cytometry, HEK293-T
# human CD33 L180A (human) = human CD33 L180A (human) (UniProt P20138); experiment: alanine scan, flow cytometry, HEK293-T
# Chain of human CD33 L180A (human) (P20138 18-364 L180A limits assumed): as the sequence (P20138 18-364 F177A limits assumed) above, with A160F, L163A counted along it
# human CD33 L134A (human) = human CD33 L134A (human) (UniProt P20138); experiment: alanine scan, flow cytometry, HEK293-T
# Chain of human CD33 L134A (human) (P20138 18-364 L134A limits assumed): as the sequence (P20138 18-364 F177A limits assumed) above, with L117A, A160F counted along it
# human CD33 R110A (human) = human CD33 R110A (human) (UniProt P20138); experiment: alanine scan, flow cytometry, HEK293-T
# human CD33 P55A (human) = human CD33 P55A (human) (UniProt P20138); experiment: alanine scan, flow cytometry, HEK293-T
# human CD33 V258A (human) = human CD33 V258A (human) (UniProt P20138); experiment: alanine scan, flow cytometry
# human CD33 H206A (human) = human CD33 H206A (human) (UniProt P20138); experiment: alanine scan, flow cytometry
# human CD33 I227A (human) = human CD33 I227A (human) (UniProt P20138); experiment: alanine scan, flow cytometry
# human CD33 A265S (human) = human CD33 A265S (human) (UniProt P20138); experiment: alanine scan, flow cytometry
# human CD33 G264A (human) = human CD33 G264A (human) (UniProt P20138); experiment: alanine scan, flow cytometry
# human CD33 V196A (human) = human CD33 V196A (human) (UniProt P20138); experiment: alanine scan, flow cytometry
# Chain of human CD33 V196A (human) (P20138 18-364 V196A limits assumed): as the sequence (P20138 18-364 F177A limits assumed) above, with A160F, V179A counted along it
# human CD33 I262A (human) = human CD33 I262A (human) (UniProt P20138); experiment: alanine scan, flow cytometry
# human CD33 F216A (human) = human CD33 F216A (human) (UniProt P20138); experiment: alanine scan, flow cytometry
# Chain of human CD33 F216A (human) (P20138 18-364 F216A limits assumed): as the sequence (P20138 18-364 F177A limits assumed) above, with A160F, F199A counted along it
# human CD33 I198A (human) = human CD33 I198A (human) (UniProt P20138); experiment: alanine scan, flow cytometry
# Chain of human CD33 I198A (human) (P20138 18-364 I198A limits assumed): as the sequence (P20138 18-364 F177A limits assumed) above, with A160F, I181A counted along it
# human CD33 T226A (human) = human CD33 T226A (human) (UniProt P20138); experiment: alanine scan, flow cytometry
# human CD33 T223A (human) = human CD33 T223A (human) (UniProt P20138); experiment: alanine scan, flow cytometry
# human CD33 Q251A (human) = human CD33 Q251A (human) (UniProt P20138); experiment: alanine scan, flow cytometry
# human CD33 R202A (human) = human CD33 R202A (human) (UniProt P20138); experiment: alanine scan, flow cytometry
# human CD33 P235A (human) = human CD33 P235A (human) (UniProt P20138); experiment: alanine scan, flow cytometry
# human CD33 T239A (human) = human CD33 T239A (human) (UniProt P20138); experiment: alanine scan, flow cytometry
# human CD33 A261S (human) = human CD33 A261S (human) (UniProt P20138); experiment: alanine scan, flow cytometry
# human CD33 T232A (human) = human CD33 T232A (human) (UniProt P20138); experiment: alanine scan, flow cytometry
# Chain of human CD33 T232A (human) (P20138 18-364 T232A limits assumed): as the sequence (P20138 18-364 F177A limits assumed) above, with A160F, T215A counted along it
# human CD33 V231A (human) = human CD33 V231A (human) (UniProt P20138); experiment: alanine scan, flow cytometry
# human CD33 T211A (human) = human CD33 T211A (human) (UniProt P20138); experiment: alanine scan, flow cytometry
# Chain of human CD33 T211A (human) (P20138 18-364 T211A limits assumed): as the sequence (P20138 18-364 F177A limits assumed) above, with A160F, T194A counted along it
# human CD33 I242A (human) = human CD33 I242A (human) (UniProt P20138); experiment: alanine scan, flow cytometry
# human CD33 P203A (human) = human CD33 P203A (human) (UniProt P20138); experiment: alanine scan, flow cytometry
# human CD33 G241A (human) = human CD33 G241A (human) (UniProt P20138); experiment: alanine scan, flow cytometry
# Chain of human CD33 G241A (human) (P20138 18-364 G241A limits assumed): as the sequence (P20138 18-364 F177A limits assumed) above, with A160F, G224A counted along it
# human CD33 Q236A (human) = human CD33 Q236A (human) (UniProt P20138); experiment: alanine scan, flow cytometry
# Chain of human CD33 Q236A (human) (P20138 18-364 Q236A limits assumed): as the sequence (P20138 18-364 F177A limits assumed) above, with A160F, Q219A counted along it
# human CD33 N209A (human) = human CD33 N209A (human) (UniProt P20138); experiment: alanine scan, flow cytometry
# human CD33 G207A (human) = human CD33 G207A (human) (UniProt P20138); experiment: alanine scan, flow cytometry
# human CD33 T240A (human) = human CD33 T240A (human) (UniProt P20138); experiment: alanine scan, flow cytometry
# human CD33 G263A (human) = human CD33 G263A (human) (UniProt P20138); experiment: alanine scan, flow cytometry
# Chain of human CD33 G263A (human) (P20138 18-364 G263A limits assumed): as the sequence (P20138 18-364 F177A limits assumed) above, with A160F, G246A counted along it
# human CD33 T253A (human) = human CD33 T253A (human) (UniProt P20138); experiment: alanine scan, flow cytometry
# human CD33 C212A (human) = human CD33 C212A (human) (UniProt P20138); experiment: alanine scan, flow cytometry
# human CD33 T200A (human) = human CD33 T200A (human) (UniProt P20138); experiment: alanine scan, flow cytometry
# human CD33 F243A (human) = human CD33 F243A (human) (UniProt P20138); experiment: alanine scan, flow cytometry
# Chain of human CD33 F243A (human) (P20138 18-364 F243A limits assumed): as the sequence (P20138 18-364 F177A limits assumed) above, with A160F, F226A counted along it
# human CD33 Q228A (human) = human CD33 Q228A (human) (UniProt P20138); experiment: alanine scan, flow cytometry
# Chain of human CD33 Q228A (human) (P20138 18-364 Q228A limits assumed): as the sequence (P20138 18-364 F177A limits assumed) above, with A160F, Q211A counted along it
# human CD33 D205A (human) = human CD33 D205A (human) (UniProt P20138); experiment: alanine scan, flow cytometry
# human CD33 V221A (human) = human CD33 V221A (human) (UniProt P20138); experiment: alanine scan, flow cytometry
# human CD33 A255S (human) = human CD33 A255S (human) (UniProt P20138); experiment: alanine scan, flow cytometry
# human CD33 E252A (human) = human CD33 E252A (human) (UniProt P20138); experiment: alanine scan, flow cytometry
# Chain of human CD33 E252A (human) (P20138 18-364 E252A limits assumed): as the sequence (P20138 18-364 F177A limits assumed) above, with A160F, E235A counted along it
substance,measurement,setting,value
Refmab #7 (WM53) (antibody),Mean % WT Binding,human CD33 I176A (human),103 % WT binding
same,Mean % WT Binding,human CD33 Q80A (human),124 % WT binding
same,Mean % WT Binding,human CD33 V56A (human),117 % WT binding
same,Mean % WT Binding,human CD33 P96A (human),98.7 % WT binding
same,Mean % WT Binding,human CD33 E121A (human),94.4 % WT binding
same,Mean % WT Binding,human CD33 F177A (human),74.1 % WT binding
same,Mean % WT Binding,human CD33 A182S (human),114 % WT binding
same,Mean % WT Binding,human CD33 Y129A (human),155 % WT binding
same,Mean % WT Binding,human CD33 L187A (human),124 % WT binding
same,Mean % WT Binding,human CD33 R109A (human),127 % WT binding
same,Mean % WT Binding,human CD33 L180A (human),105 % WT binding
same,Mean % WT Binding,human CD33 L134A (human),96.6 % WT binding
same,Mean % WT Binding,human CD33 R110A (human),95.9 % WT binding
same,Mean % WT Binding,human CD33 P55A (human),94.7 % WT binding
same,Mean % WT Binding,human CD33 V258A (human),98.8 % WT binding
same,Mean % WT Binding,human CD33 H206A (human),108 % WT binding
same,Mean % WT Binding,human CD33 I227A (human),101 % WT binding
same,Mean % WT Binding,human CD33 A265S (human),110 % WT binding
same,Mean % WT Binding,human CD33 G264A (human),82.8 % WT binding
same,Mean % WT Binding,human CD33 V196A (human),117 % WT binding
same,Mean % WT Binding,human CD33 I262A (human),119 % WT binding
same,Mean % WT Binding,human CD33 F216A (human),112 % WT binding
same,Mean % WT Binding,human CD33 I198A (human),111 % WT binding
same,Mean % WT Binding,human CD33 T226A (human),99.1 % WT binding
same,Mean % WT Binding,human CD33 T223A (human),110 % WT binding
same,Mean % WT Binding,human CD33 Q251A (human),108 % WT binding
same,Mean % WT Binding,human CD33 R202A (human),104 % WT binding
same,Mean % WT Binding,human CD33 P235A (human),112 % WT binding
same,Mean % WT Binding,human CD33 T239A (human),112 % WT binding
same,Mean % WT Binding,human CD33 A261S (human),102 % WT binding
same,Mean % WT Binding,human CD33 T232A (human),95.3 % WT binding
same,Mean % WT Binding,human CD33 V231A (human),112 % WT binding
same,Mean % WT Binding,human CD33 T211A (human),98.1 % WT binding
same,Mean % WT Binding,human CD33 I242A (human),105 % WT binding
same,Mean % WT Binding,human CD33 P203A (human),113 % WT binding
same,Mean % WT Binding,human CD33 G241A (human),131 % WT binding
same,Mean % WT Binding,human CD33 Q236A (human),94.3 % WT binding
same,Mean % WT Binding,human CD33 N209A (human),128 % WT binding
same,Mean % WT Binding,human CD33 G207A (human),104 % WT binding
same,Mean % WT Binding,human CD33 T240A (human),121 % WT binding
same,Mean % WT Binding,human CD33 G263A (human),104 % WT binding
same,Mean % WT Binding,human CD33 T253A (human),112 % WT binding
same,Mean % WT Binding,human CD33 C212A (human),17.8 % WT binding
same,Mean % WT Binding,human CD33 T200A (human),97.6 % WT binding
same,Mean % WT Binding,human CD33 F243A (human),91.8 % WT binding
same,Mean % WT Binding,human CD33 Q228A (human),115 % WT binding
same,Mean % WT Binding,human CD33 D205A (human),0.8 % WT binding
same,Mean % WT Binding,human CD33 V221A (human),99.7 % WT binding
same,Mean % WT Binding,human CD33 A255S (human),121 % WT binding
same,Mean % WT Binding,human CD33 E252A (human),120 % WT binding
